Assay results from PMC7824897, “Selection of the First ^99mTc-Labelled Somatostatin Receptor Subtype 2 Antagonist for Clinical Translation—Preclinical Assessment of Two Optimized Candidates” (Pharmaceuticals, 2020).
Bridges are numbered along the chain shown (N, C = ends). [ ]: non-standard residue; d: D form. The star is where a group is joined. N4 = 6-carboxy-1,4,8,11-tetraazaundecane chelator, NCCNCC(CNCCN)C(=O)*; dPhe(4-NHCONH2) = NC(=O)Nc1ccc(C[C@@H](N)C(=O)O)cc1; Phe(4-Cl) = N[C@@H](Cc1ccc(Cl)cc1)C(=O)O

B1: TECANT-1 (N4-p-Cl-Phe-cyclo(D-Cys-Tyr-D-Aph(Cbm)-Lys-Thr-Cys)-D-Tyr-NH2) (peptide)
peptide: N4-[Phe(4-Cl)][dC]Y[dPhe(4-NHCONH2)]KTC[dY]-NH2
modifications: disulfide 2-7
SMILES: C[C@@H](O)[C@@H]1NC(=O)[C@H](CCCCN)NC(=O)[C@@H](Cc2ccc(NC(N)=O)cc2)NC(=O)[C@H](Cc2ccc(O)cc2)NC(=O)[C@H](NC(=O)[C@H](Cc2ccc(Cl)cc2)NC(=O)C(CNCCN)CNCCN)CSSC[C@@H](C(=O)N[C@H](Cc2ccc(O)cc2)C(N)=O)NC1=O
notes: printed in three-letter code: N4-p-Cl-Phe-cyclo(D-Cys-Tyr-D-Aph(Cbm)-Lys-Thr-Cys)-D-Tyr-NH2; F at 1 stands for p-Cl-Phe and F at 4 for D-Aph(Cbm), both phenylalanine derivatives; SST2 antagonist based on LM3; non-metallated peptide conjugate; also called N4-LM3; source: synthetic peptide, custom made by piChem
B2: ^natRe-TECANT-2 (peptide)
peptide: N4-[Phe(4-Cl)][dC]Y[dW]KTC[dY]-NH2
modifications: disulfide 2-7; also: N4 chelator holds natural rhenium
notes: as TECANT-2: N4-p-Cl-Phe-cyclo(D-Cys-Tyr-D-Trp-Lys-Thr-Cys)-D-Tyr-NH2; F at 1 stands for p-Cl-Phe; surrogate of the Tc complex; also called [^natRe]Re-TECANT-2; Re-complex of TECANT-2; source: synthetic peptide (piChem), Re complex made with tetrabutylammonium-tetrachloro-oxo-rhenate (V)
B3: [^99mTc]Tc-TECANT-2 (peptide)
peptide: N4-[Phe(4-Cl)][dC]Y[dW]KTC[dY]-NH2
modifications: disulfide 2-7; also: N4 chelator holds 99mTc (dioxo-99mTc(V) complex)
notes: as TECANT-2: N4-p-Cl-Phe-cyclo(D-Cys-Tyr-D-Trp-Lys-Thr-Cys)-D-Tyr-NH2; F at 1 stands for p-Cl-Phe; also called ^99mTc-N4-SS01; source: synthetic peptide (piChem), labelled with ^99mTc, used without further purification
B4: [^99mTc]Tc-TECANT-1 (peptide)
peptide: N4-[Phe(4-Cl)][dC]Y[dPhe(4-NHCONH2)]KTC[dY]-NH2
modifications: disulfide 2-7; also: N4 chelator holds 99mTc (dioxo-99mTc(V) complex)
notes: as TECANT-1: N4-p-Cl-Phe-cyclo(D-Cys-Tyr-D-Aph(Cbm)-Lys-Thr-Cys)-D-Tyr-NH2; F at 1 stands for p-Cl-Phe and F at 4 for D-Aph(Cbm); source: synthetic peptide (piChem), labelled with ^99mTc, used without further purification
B5: ^natRe-TECANT-1 (peptide)
peptide: N4-[Phe(4-Cl)][dC]Y[dPhe(4-NHCONH2)]KTC[dY]-NH2
modifications: disulfide 2-7; also: N4 chelator holds natural rhenium
notes: as TECANT-1: N4-p-Cl-Phe-cyclo(D-Cys-Tyr-D-Aph(Cbm)-Lys-Thr-Cys)-D-Tyr-NH2; F at 1 stands for p-Cl-Phe and F at 4 for D-Aph(Cbm); surrogate of the Tc complex; also called [^natRe]Re-TECANT-1; Re-complex of TECANT-1; source: synthetic peptide (piChem), Re complex made with tetrabutylammonium-tetrachloro-oxo-rhenate (V)

Experiments:
Conditions in all cases: one partner purified
[1] = biological target: T1, T7-epitope tagged human SST2 receptor (somatostatin receptor subtype 2) (human, UniProt P30874 1-369); test: radioligand binding; competition on 5 x 10^5 HEK-SST2 cells in 96-well filter plates; radioligand [^177Lu]Lu-DOTA-TATE (1 nM); competitor 0.004 to 4000 nM; 2 h at 4 °C; TRIS buffer; apparent IC50
T1 construct: somatostatin receptor subtype 2 (SST2), human, expressed in HEK293 cells; also called HEK-SST2 (the cells that express it); source: HEK293 cell line expressing it (HEK-SST2), provided by Professor Stefan Schulz; on intact cells

[2] = biological target: T1, T7-epitope tagged human SST2 receptor …; test: radioligand binding; dissociation without competitor: radiotracer 0.25 nM bound to HEK-SST2 cells for 2 h at 4 °C, washed, then medium at 37 °C replaced at 10, 20, 30, 60, 120 and 240 min; cell-associated radiotracer left
[3] = biological target: T1, T7-epitope tagged human SST2 receptor …; test: radioligand binding; dissociation with competitor: as without, but medium with 2.5 µM of the respective unlabelled TECANT analogue

T1 sequence (P30874 whole entry): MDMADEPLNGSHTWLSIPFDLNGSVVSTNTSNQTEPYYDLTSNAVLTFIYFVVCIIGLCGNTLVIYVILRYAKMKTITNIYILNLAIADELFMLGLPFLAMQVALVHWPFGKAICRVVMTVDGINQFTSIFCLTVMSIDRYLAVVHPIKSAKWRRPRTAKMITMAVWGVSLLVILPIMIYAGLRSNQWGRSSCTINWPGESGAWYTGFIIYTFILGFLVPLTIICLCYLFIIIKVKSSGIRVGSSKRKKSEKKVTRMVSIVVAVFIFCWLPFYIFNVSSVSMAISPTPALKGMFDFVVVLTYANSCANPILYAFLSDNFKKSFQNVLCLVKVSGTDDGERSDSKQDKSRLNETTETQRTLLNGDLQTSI

Binder | IC50 [1] | estimated half-life of dissociation [2] | estimated half-life of dissociation [3]
B1 | 4.14 ± 0.83 nM |  | 
B2 | 4.47 ± 0.89 nM |  | 
B3 |  | 40.3 min | 7.5 min
B4 |  | 98 min | 19 min
B5 | 5.01 ± 0.93 nM |  | 
